Laboratory results taken from patent publication US20260167959A1, “APTAZYME-BASED REGULATABLE GENE EXPRESSION SYSTEMS” (REJUVENATE BIO INC, priority 2022, published 2026).

system: Renilla luciferase RNA; experiment: Barcoded aptazyme variant library screen: un-cleaved Renilla luciferase RNA by barcode read counts, HEK293-T cells; format: cell-based; conditions: un-cleaved Renilla luciferase RNA by barcode read counts; with 1 mM theophylline (ON) over without theophylline (OFF); HEK293-T cells; triplicate
In short: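 Barcode sequencing of cDNA versus DNA, normalized per aptazyme, gave the un-cleaved Renilla luciferase RNA fraction and fold-change with versus without theophylline (triplicates). Library: T3H48 ribozyme with one of seven theophylline aptamer variants inserted at each position, placed in the Renilla 3′ UTR of a dual-luciferase vector.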

Molecule | Fold change in RNA expression between the ON state and the OFF state
RA390 (nucleic acid, expressed or natural sequence) DNA: GCGCGTCCGGAATACCAGCATCGTCTTGATGCCCTTGGAAGTCCGGCCTGGATTCGCGGAAACGCGTACATCCAGCTGACGAGTCCCAAATAGGACGAAACGCGC | 0.7
RA391 (nucleic acid, expressed or natural sequence) DNA: GCGCGTCCTGGATTCGCGGAAACGCGTACATCCAGCTGACGAGTCCCAGAGAATACCAGCATCGTCTTGATGCCCTTGGAAGTCTCAATAGGACGAAACGCGC | 0.7
RA392 (nucleic acid, expressed or natural sequence) DNA: GCGCGTCCTGGATTCGCGGACGGAATACCAGCATCGTCTTGATGCCCTTGGAAGTCCGAACGCGTACATCCAGCTGACGAGTCCCAAATAGGACGAAACGCGC | 0.7
RA393 (nucleic acid, expressed or natural sequence) DNA: GCGCGTCCTGGATTCGCGGAAACGCGTACATCCAGCTGACGAGTCCCAAATAGGCGGAATACCAGCATCGTCTTGATGCCCTTGGAAGTCCGACGAAACGCGC | 0.7
RA394 (nucleic acid, expressed or natural sequence) DNA: GCGCGTCCTGGATTCGCAGAATACCAGCATCGTCTTGATGCCCTTGGAAGTCTGGAAACGCGTACATCCAGCTGACGAGTCCCAAATAGGACGAAACGCGC | 0.7
RA395 (nucleic acid, expressed or natural sequence) DNA: GCGCGTCCTGGATTCGCGGAAACGCGTACATCCAGCTGACGAGTCCCAAATAGGAGAATACCAGCATCGTCTTGATGCCCTTGGAAGTCTCGACGAAACGCGC | 0.7
RA396 (nucleic acid, expressed or natural sequence) DNA: GCGCGTCCTGGATTCGCGGAAACGCGTACATCCAGCTGCGGAATACCAGCATCGTCTTGATGCCCTTGGAAGTCCGACGAGTCCCAAATAGGACGAAACGCGC | 0.7
RA397 (nucleic acid, expressed or natural sequence) DNA: GCGCGTCCTGGATTCGCGGAAACGCGTACATCCAGCTGACGAGTCCCAAATAGGACGAAACGCGCCGGAATACCAGCATCGTCTTGATGCCCTTGGAAGTCCG | 0.7
RA398 (nucleic acid, expressed or natural sequence) DNA: GCGCGTCCTGGATTCGCGGACGAGAATACCAGCATCGTCTTGATGCCCTTGGAAGTCTCGAACGCGTACATCCAGCTGACGAGTCCCAAATAGGACGAAACGCGC | 0.7
RA399 (nucleic acid, expressed or natural sequence) DNA: GCGCGTCCTGGATTCGCGGAAACGCGTACATCCACGAGAATACCAGCATCGTCTTGATGCCCTTGGAAGTCTCGGCTGACGAGTCCCAAATAGGACGAAACGCGC | 0.7
RA400 (nucleic acid, expressed or natural sequence) DNA: GCGCGTCCTGGATTCGCGGAACCGGAATACCAGCATCGTCTTGATGCCCTTGGAAGTCCGGACGCGTACATCCAGCTGACGAGTCCCAAATAGGACGAAACGCGC | 0.7
RA401 (nucleic acid, expressed or natural sequence) DNA: GCGCGTCCTGGATTCGCGGAAACGCGCGGAATACCAGCATCGTCTTGATGCCCTTGGAAGTCCGTACATCCAGCTGACGAGTCCCAAATAGGACGAAACGCGC | 0.7
RA402 (nucleic acid, expressed or natural sequence) DNA: GCGCGTCCTGGATTCGAGAATACCAGCATCGTCTTGATGCCCTTGGAAGTCTCGCGCGGAAACGCGTACATCCAGCTGACGAGTCCCAAATAGGACGAAACGCGC | 0.7
RA403 (nucleic acid, expressed or natural sequence) DNA: GCGCGTCCTCGGAATACCAGCATCGTCTTGATGCCCTTGGAAGTCCGGGATTCGCGGAAACGCGTACATCCAGCTGACGAGTCCCAAATAGGACGAAACGCGC | 0.7
RA404 (nucleic acid, expressed or natural sequence) DNA: GCGCGTCCTGGATTCGCGGAAGGAATACCAGCATCGTCTTGATGCCCTTGGAAGTCCACGCGTACATCCAGCTGACGAGTCCCAAATAGGACGAAACGCGC | 0.7
RA405 (nucleic acid, expressed or natural sequence) DNA: GCGCGTCCTGGATTCGCGGAAACGCGTACGAGAATACCAGCATCGTCTTGATGCCCTTGGAAGTCTCGCATCCAGCTGACGAGTCCCAAATAGGACGAAACGCGC | 0.7
RA406 (nucleic acid, expressed or natural sequence) DNA: GCGCGTCCTGGATTCGCGGAAACGCGTACATCCAGCTGACGAGTCCCCGGAATACCAGCATCGTCTTGATGCCCTTGGAAGTCCGAAATAGGACGAAACGCGC | 0.7
RA407 (nucleic acid, expressed or natural sequence) DNA: GCGCGTCCTGGATTCGCGGAAACGCGTACATCCAGCTGACGAGTCCCAAATAGGACGGAATACCAGCATCGTCTTGATGCCCTTGGAAGTCCGAAACGCGC | 0.7
RA408 (nucleic acid, expressed or natural sequence) DNA: GCGCGTCCTGGATTCGCGGAAACGCGGGAATACCAGCATCGTCTTGATGCCCTTGGAAGTCCTACATCCAGCTGACGAGTCCCAAATAGGACGAAACGCGC | 0.7
RA409 (nucleic acid, expressed or natural sequence) DNA: GCGCGTCCTGGATTCGCCGAGAATACCAGCATCGTCTTGATGCCCTTGGAAGTCTCGGGAAACGCGTACATCCAGCTGACGAGTCCCAAATAGGACGAAACGCGC | 0.7
RA410 (nucleic acid, expressed or natural sequence) DNA: GCGCGTCCTGGATTCGCGGAAACGCGTACATCCAGCTGACGAGTCCCAGTGATACCAGCATCGTCTTGATGCCCTTGGCAGCACTAAATAGGACGAAACGCGC | 0.7
RA411 (nucleic acid, expressed or natural sequence) DNA: GCGCGTCCTGGATTCGCGGAAACGCGTACATCCAGCTGACGAGTCCCAAATAGCGAGAATACCAGCATCGTCTTGATGCCCTTGGAAGTCTCGGACGAAACGCGC | 0.7
RA412 (nucleic acid, expressed or natural sequence) DNA: GCGCGTCCTGGATTCGCGGAGTGATACCAGCATCGTCTTGATGCCCTTGGCAGCACTAAACGCGTACATCCAGCTGACGAGTCCCAAATAGGACGAAACGCGC | 0.7
RA413 (nucleic acid, expressed or natural sequence) DNA: GCGCGTCCTGGATTCGCGGAAACGCGTAGAATACCAGCATCGTCTTGATGCCCTTGGAAGTCTACATCCAGCTGACGAGTCCCAAATAGGACGAAACGCGC | 0.7
RA414 (nucleic acid, expressed or natural sequence) DNA: GCGCGTCCTGGATTCGCGGAAACGCGTACATCCAGCTGACGAGTCCCCCGGAATACCAGCATCGTCTTGATGCCCTTGGAAGTCCGGAAATAGGACGAAACGCGC | 0.7
RA415 (nucleic acid, expressed or natural sequence) DNA: GCGCGTCCTGGATTCGCGGACCGGAATACCAGCATCGTCTTGATGCCCTTGGAAGTCCGGAACGCGTACATCCAGCTGACGAGTCCCAAATAGGACGAAACGCGC | 0.7

same assay, conditions: un-cleaved Renilla luciferase RNA, HEK293-T cells cultured with 1 mM theophylline (ON) over without theophylline (OFF); barcode read counts, triplicate

Molecule | Fold change in RNA expression between the ON state and the OFF state [fold]
RA039 (nucleic acid, expressed or natural sequence) DNA: GCGCGTCCTGGATTCGCGGAAACGCGTACATCGGAATACCAGCATCGTCTTGATGCCCTTGGAAGTCCCAGCTGACGAGTCCCAAATAGGACGAAACGCGC | 2.2
RA040 (nucleic acid, expressed or natural sequence) DNA: GCGCGTCCTGGATTCGCGAGAATACCAGCATCGTCTTGATGCCCTTGGAAGTCTGAAACGCGTACATCCAGCTGACGAGTCCCAAATAGGACGAAACGCGC | 2.1
